Assay results reported in patent US5688918, “p53as protein and antibody therefor” (Health Research, Inc.).

Key:
p53as (Mus musculus) = p53as (Mus musculus) (UniProt P02340); experiment: cell_activity
p53 [1] = target: T1, p53 (UniProt P02340 P02340:1-390); experiment: cell_activity
p53 [2] = target: T1, p53; experiment: cell_activity; CAT reporter, mouse (10)1 cells; conditions: tags: none; pCMVp53r; chain copies: 4
Method: Spontaneously arising immortalized murine BALB/c embryo fibroblast (10) 1 is a p53 negative cell line which was transfected with 2 μg pSV-β-gal plasmid (Promegal), 3 μg 50-2 plasmid (Dr. Levine) which contains 2 copies of a 50 bp sequence corresponding to p53 binding site in muscle creatinine kinase promoter-enhancer upstream of a basic CAT reporter plasmid, and 5 μg pCMVp53as, pCMVp53r or pCMV vector control. Transfection was done using the calcium phosphate method. The cells were harvested 48 hors post transfection and lysed by three freeze-thaw cycles. The supernatant was assayed for CAT activity using diffusion.

[3] = CAT reporter, human Saos-2 cells
[4] = luciferase reporter, mouse (10)1 cells

T1 sequence (P02340 whole entry, one chain of several): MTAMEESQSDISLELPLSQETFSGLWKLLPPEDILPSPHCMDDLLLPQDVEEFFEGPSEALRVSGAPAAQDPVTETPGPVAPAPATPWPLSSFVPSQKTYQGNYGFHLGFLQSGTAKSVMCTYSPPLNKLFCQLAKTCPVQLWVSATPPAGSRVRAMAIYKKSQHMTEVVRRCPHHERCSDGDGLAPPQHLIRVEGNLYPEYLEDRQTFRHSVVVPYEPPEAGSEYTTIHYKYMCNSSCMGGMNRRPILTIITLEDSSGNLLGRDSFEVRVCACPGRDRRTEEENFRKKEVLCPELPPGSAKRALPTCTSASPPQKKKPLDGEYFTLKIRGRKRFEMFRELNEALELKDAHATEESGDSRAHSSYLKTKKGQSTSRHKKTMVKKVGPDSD
Chain of p53as (Mus musculus) (P02340 1-364): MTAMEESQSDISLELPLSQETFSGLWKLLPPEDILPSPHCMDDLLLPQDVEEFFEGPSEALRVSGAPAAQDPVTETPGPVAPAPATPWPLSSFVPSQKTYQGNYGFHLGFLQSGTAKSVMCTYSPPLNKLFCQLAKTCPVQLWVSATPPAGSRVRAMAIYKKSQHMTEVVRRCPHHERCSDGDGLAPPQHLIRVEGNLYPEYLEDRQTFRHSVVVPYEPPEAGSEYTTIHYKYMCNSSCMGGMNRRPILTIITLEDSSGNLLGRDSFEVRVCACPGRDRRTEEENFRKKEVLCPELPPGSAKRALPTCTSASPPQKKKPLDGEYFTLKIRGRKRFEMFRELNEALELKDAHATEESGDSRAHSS

## PG13 (13 repeats of p53 binding site)
p53as (Mus musculus); [3]
  activity (fold activation): 9
p53 [1]; [3]
  activity (fold activation): 14

## WAF-1 promoter (WWP-1 luciferase)
p53as (Mus musculus); [4]
  activity (fold activation): 14
p53 [1]; [4]
  activity (fold activation): 15

B1: muscle creatine kinase promoter-enhancer p53 site (50-2 reporter, 2 copies of 50 bp) (dsDNA)
DNA 1: TGGCAAGCCTATGACATGGCCGGGGCCTGCCTCTCTCTGCCTCTGACCCT
DNA 2: AGGGTCAGAGGCAGAGAGAGGCAGGCCCCGGCCATGTCATAGGCTTGCCA
p53 [2]
  activity: 27 fold activation
